B1: TPR t1 (parent)
chain: GACCAAUCUGCCCUCAGAGCUCGAGAACAUCUUCGGAUGCAGAGGAGGCAGGCUUCGGUGGCGCGAUAGCGCCAACGUCCUCAACCUCCAAUGCAUCCCACCACAUGAUGAUGCCUGAAGAGCCUUGGUUUUUUG

Variants of: B1
Assay: polymerase ribozyme fitness, log enrichment relative to wild type (log ratio); higher = more active; in vitro selection for triplet polymerase activity
In short: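 Streptavidin-bead capture of gel-excised extended constructs, followed by RT-PCR, closed a single triplicate in vitro selection round. That round began by annealing PCR-built, transcribed mutant libraries of each subunit of a heterodimeric triplet polymerase ribozyme with a biotinylated primer, the partner subunit and triplets, then incubating them frozen at −7 °C. After Illumina sequencing of inputs and outputs, genotypes needed ≥10 input reads and ≥1 read per output. Fitness is the base-2 logarithm of genotype enrichment over wild-type enrichment, using inverse-variance-weighted replicate averages.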

Row | Variant | polymerase ribozyme fitness (log ratio)
1 | G48A C64U | 0.0683
2 | G48A C64A | -6.92
3 | G48U A118G U125G | -2.75
4 | G48A C64U A111G | -0.284
5 | G48A C73A G127C | -1.15
6 | G48C C123U | -0.702
7 | G47C A108G U112A U133A | -5.17
8 | G48A G52A C101G | -2.71
9 | C49A C56U G120U | 0.2
10 | C49A A84C C99U | -3.55
11 | G47U U131G | -1.85
12 | G47C G77U U116G | -3.46
13 | C49G C101A C124U | 0.417
14 | C49U A91C C123A | -1.62
15 | G47C C82U | -1.27
16 | C49A G69U | 0.034
17 | C49U C53U G60A G122A U133G | -1.32
18 | G47U G120U | -0.0894
19 | G48U C88G G113C A121C | -3.7
20 | G47U A105G | -3.69
21 | C49G G63U U92C | -3.98
22 | C49G C98G | -4.99
23 | G47U G52A | -2.71
24 | G47U C72U U87C C98G U112A | -7.3

Row | Variant | polymerase ribozyme fitness (log ratio)
25 | C49U G51U | -5.95
26 | C49A C86G C101A A118U | -1.56
27 | C49A C72A C73U C97G C123A | -5.81
28 | G47U C53U A111G | -1.54
29 | G47C G71U | -1.65
30 | G48A C49U G61U U78A G122A U126A | -3.77
31 | G48U A50U A68G C89G U106A U116C C124U | -5.48
32 | C49U C53U C72G C114U | -3.44
33 | G48U U59G C72U C94G | -1.86
34 | G47C C70U U78A | -1.82
35 | G47C C53U C124A | 0.271
36 | C49G A90C U126C | -3.39
37 | G47C C49U C62U | -2.46
38 | G47U G51A A121G G128U | -3.97
39 | C49U C80G | -5.44
40 | G48U G60C C70U U78G | -5.9
41 | C49U C70U | -1.33
42 | C49U C73G | -0.732
43 | G48C C86U C115A | -1.07
44 | G48A G71C G117A | -1.66
45 | G47C A66U A119U A121U | -0.0171
46 | G48C C53A C124U G128C | -3.02
47 | G48U C53G G69U | -0.128
48 | G48U A50U U78C A90U C123A | -2.26

Row | Variant | polymerase ribozyme fitness (log ratio)
49 | C49A A91U A95G A100C | -6.08
50 | G48A U133G | -1.38
51 | C49G G57U | -0.441
52 | C49A C56A C64U U130C | -0.336
53 | G47U G63A U116A | -4.47
54 | G47A G93U | -2.71
55 | C49A G52A G57A U78A | -1.73
56 | C49A C94U U116A | -3.07
57 | G47C U125G | -3.03
58 | G47C G71C G117U | -4.58
59 | C49U C62U G77A U78G C80G A90C G107U C115G G120C | -7.16
60 | G48U C56A A105G A111G | -5.01
61 | G48A U87A | -0.877
62 | G47U G57U G93U | -3.51
63 | G48U C94U | -1.2
64 | G48U C94G | -1.44
65 | G48A C56G | -0.92
66 | C49A C88A G113U A119U G128U | -6.41
67 | C49A C86A U129G | -1.96
68 | G47C C88A C124A | -0.557
69 | C49U G57U C79A | -3.24
70 | G48U A100C A105C C123U | -4.99
71 | G48A C73U C85A | -1.26
72 | C49A A118G | -0.216

Row | Variant | polymerase ribozyme fitness (log ratio)
73 | C49A A68G A90U | -6.08
74 | G48C A84G C85G C115A G127U | -4.98
75 | C49G A83G C88A C102U G120C | -5.33
76 | G47U G48A | 0.823
77 | C49U C85G U96G | -2.99
78 | C49G U78G U112A | -0.0739
79 | G48C C56G C62U U78C C115U C124A | -2.1
80 | G48A A83U C102A | -2.24
81 | G48A U54A C62U C82U C85A C104A | -2.99
82 | G48C U92A C104U | -3.44
83 | G47C C56U | -1.01
84 | C49G C99U G127U | -4.66
85 | G47U G48A G63C A119G U130C | -1
86 | G48C G60C G110A | -2.42
87 | G48A G69U C72U U126G G128A U132A | -2.53
88 | C49U C73A C114U | -2.58
89 | C49U C62A C115A G122A | -2.37
90 | G48C A83U A111C A118C | -0.0367
91 | G47U A50U U54A | -2.42
92 | C49U C94A | -2.8
93 | C49A C56A U59A C73G C114A G128C | -8.01
94 | G48C C104A C124A | -0.812
95 | G47U G127C U130C | -2.06
96 | G47U G48U G63U A111G | -4.04

Row | Variant | polymerase ribozyme fitness (log ratio)
97 | G47U G58C | -0.433
98 | G48A U112A U125G G127C | -1.12
99 | C49G G63A U78A C99A | -8.17
100 | G47C G52C | -3
101 | G48U A111U U125G | -4.47
102 | G48U A84C C115A | -1.64
103 | C49A C53A C79A C85U A111C | -2.83
104 | G48C G93U U96A A111G | -5.62
105 | C49A C72U C97G G128C | -6.74
106 | C49U C98U | -2.16
107 | G48C A50G C102A | -3.21
108 | C49G G69U G117A | -1.13
109 | G47A U54A A90G U131G | -0.834
110 | C49U A103C U112C | -3.22
111 | G48U U59A G60U G122A C123A | -1.51
112 | G47C G61A G69A A111C U116A | -6.11
113 | G48U C73U U109A G110U A119U | -4.88
114 | G47U C114G | -4.11
115 | G48A G61C C88A C97U C115G A119G U126A | -3.38
116 | C49A U55C G61C C104U | -2.02
117 | G48A C70A C86G G107C G110U | -5.84
118 | G47U U78C | -1.44
119 | G48U G57U G63A U96G A100C C102G G120C | -6.73
120 | G47U G48U C56A C73A A118G | -3.88

Row | Variant | polymerase ribozyme fitness (log ratio)
121 | C49A U96G | -0.658
122 | C49G A90U G117A | -3.8
123 | G47U U126G | -3.77
124 | G47C C102A | -3.89
125 | G48U G110A C124G U133A | -1.53
126 | G47U C64U U67C | -7.12
127 | G47U A121C C123A G128A | -2.3
128 | C49G G61C | -2.12
129 | G48U A91U C123U G127U | -2.98
130 | G47A U87G | -0.336
131 | G48A C64U C89G C114U U126G | -6.43
132 | C49G C82G A118U | -0.627
133 | G47C G58A U112A G117U | -3.44
134 | G47A U78C | -1.09
135 | G48A G63A A75G | -1.21
136 | C49A A66G C73U | -1.61
137 | G47A U87C U112A | 0.24
138 | C49A G135U | -1.83
139 | C49G U55C C98U | -2.01
140 | C49G G120U U132A | -0.00759
141 | G48C G51U C53U | -4.86
142 | C49A G60A G135C | -0.655
143 | G48U U92G | -3.54
144 | G48C U67C G71A A95G U106A | -8.09

Row | Variant | polymerase ribozyme fitness (log ratio)
145 | C49G C62A A100U | -2.34
146 | G48A G71C U96C | -1.75
147 | G48A U67C | -3.66
148 | G47U C73A U78C C88U A95G | -4.73
149 | C49U C62A | -2.25
150 | G47U C104A U133G | -4.19
151 | G47C A90U | -4.3
152 | G48C C72G U78G U92A C124G | -2.22
153 | G48A G110A | -1.6
154 | C49U A121C | 1.39
155 | G47C C123A | -0.0743
156 | G48C A100U | -1.76
157 | G48C G93A A105C | -4.64
158 | C49A C72U G77U C115A | -1.36
159 | G47U C72A C76A C79A C80G C94G A100C U116G C124U U129A | -7.94
160 | G48A C88U U96A | -1.74
161 | C49U A50U G51A | -2.62
162 | C49U C89U | 0.0169
163 | C49U G52A C73G A121U | -1.14
164 | G47U G69C | -3.62
165 | C49A C70U C82A C104U A105U C123G G135U | -5.46
166 | G47C A95G U133A | -2.16
167 | G48U G57U C85A C114G U129A | -6.62

From the RNAGym collection of RNA variant scans (doi:10.1073/pnas.2313332121)
